From patent US20170260258A1

Experiments:
[1] = target: GST-pre-S1 (1st to 56th amino acids) protein (hepatitis B virus) [GST: P08515]; test: competitive ELISA and BLI (Octet Red)
[2] = target: GST-pre-S1 (1st to 56th amino acids) protein (hepatitis B virus) [GST: P08515]; test: BLI (Octet Red), antibody captured on anti-human Fc tip, GST-pre-S1 in solution

Sequence of GST-pre-S1 (1st to 56th amino acids) protein (hepatitis B virus) [GST: P08515] (P08515 whole entry): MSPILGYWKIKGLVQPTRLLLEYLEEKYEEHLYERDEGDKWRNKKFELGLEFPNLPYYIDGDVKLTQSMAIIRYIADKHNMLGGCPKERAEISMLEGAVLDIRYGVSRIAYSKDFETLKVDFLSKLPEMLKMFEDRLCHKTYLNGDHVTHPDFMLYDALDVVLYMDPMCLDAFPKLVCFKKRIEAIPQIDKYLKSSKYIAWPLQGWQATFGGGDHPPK

B1: humanized antibody HzKR127-3.1 (antibody, V domains shown)
VH: QVQLQQSGAEVKKPGASVKVSCKASGYTFTSSWMNWVRQAPGQGLEWMGRIYPGDGDTNYAQKFQGRVTMTADKSTSTVYMELSSLRSEDTAVYYCAREYAEAYWGQGTLVTVSS
VL: DIVMTQTPLSLSVTPGQPASISCKSSQSLLYSNGKTYLNWLLQKPGQPPQRLIYLVSNRDSGVPDRFSGSGSGTDFTLKISRVEAEDVGVYYCVQGTHFPQTFGGGTKVEIKR
With B1 as the binder, how does the fold higher affinity than HzKR127-3 [1] read?
Its fold higher affinity than HzKR127-3 is 4.9 fold.

And the Kd [2]?
Its Kd is 0.813 nM.

What about the koff [2] of the same binder?
The koff was 4.13e-05 s⁻¹.

And the kon [2]?
The kon was 50800 M⁻¹ s⁻¹.
